In patent publication US20090238823A1 (published 2009):

T1: Cynomolgus TSLP (mammalian produced) (cynomolgus)
T1 construct: The Biacore construct is not specified beyond mammalian production; also called Cyno TSLP; cynomolgus TSLPwtpHF
T1 chain: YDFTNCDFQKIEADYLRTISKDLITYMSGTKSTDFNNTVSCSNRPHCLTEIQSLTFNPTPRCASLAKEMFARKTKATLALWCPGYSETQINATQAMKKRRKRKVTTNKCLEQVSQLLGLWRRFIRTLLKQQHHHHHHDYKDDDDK

T2: Murine TSLP (murine, UniProt Q9JIE6 20-140)
T2 construct: also called Mu TSLP
T2 sequence (looked up): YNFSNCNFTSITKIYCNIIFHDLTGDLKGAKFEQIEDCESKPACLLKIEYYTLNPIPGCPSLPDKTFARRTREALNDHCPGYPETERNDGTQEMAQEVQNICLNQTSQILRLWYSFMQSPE

B1: A5 IgG2 (antibody, V domains shown)
VH: QMQLVESGGGVVQPGRSLRLSCAASGFTFRTYGMHWVRQAPGKGLEWVAVIWYDGSNKHYADSVKGRFTITRDNSKNTLNLQMNSLRAEDTAVYYCARAPQWELVHEAFDIWGQGTMVTVSS
VL: SYVLTQPPSVSVAPGQTARITCGGNNLGSKSVHWYQQKPGQAPVLVVYDDSDRPSWIPERFSGSNSGNTATLTISRGEAGDEADYYCQVWDSSSDHVVFGGGTKLTVL
notes: also called L5H5
B2: A2 IgG1 (antibody, V domains shown)
VH: EVQLVESGGVVVQPGGSLRLSCAASGFTFDDFTMHWVRQAPGKGLEWVSLISWDGGSTYYADSVKGRFTISRDNSKNSLYMQMNSLRTEDSALYYCARGPYYYFYGMDVWGQGTTVTVSS
VL: SSELTQDPAVSVALGQTVRITCQGDSLRTYYASWYQQKPGQAPILVISDKNNRPSGIPDRFSGSSSGNTASLTITGAQAEDEADYYCNSRDSSDNHLVVFGGGTKLTVL
notes: also called L2H2
B3: A2 IgG2 (antibody, V domains shown)
VH: EVQLVESGGVVVQPGGSLRLSCAASGFTFDDFTMHWVRQAPGKGLEWVSLISWDGGSTYYADSVKGRFTISRDNSKNSLYMQMNSLRTEDSALYYCARGPYYYFYGMDVWGQGTTVTVSS
VL: SSELTQDPAVSVALGQTVRITCQGDSLRTYYASWYQQKPGQAPILVISDKNNRPSGIPDRFSGSSSGNTASLTITGAQAEDEADYYCNSRDSSDNHLVVFGGGTKLTVL
notes: also called L2H2
B4: A3 IgG4 (antibody, V domains shown)
VH: QVQLVQSGAEVKKPGASVKVSCKASGYTFTDYYMYWVRQAPGQGPEWMGWINPNSGGTNYVQKFQGRVTMTRDTSISTAYMELSRMRSDDTAVYYCARDGGSSGWPLFAYWGLGTLVTVSS
VL: QSVLTQPPSVSGAPGQRVTISCTGSSSNIGAGFDVHWYQQLPGTAPKLLIYDNNNRPSGVPDRFSGSKSGTSASLAITGLQAEDEADYYCQSYDSNLSGSIVVFGGGTKLTVL
notes: also called L3H3
B5: A4 IgG4 (antibody, V domains shown)
VH: QVQLVQSGAEVKKPGASVKVSCKASGYIFTGDYMHWVRQAPGQGLEWMGWINPNSGGTNHARKFQGRVTMTRDTSISTAYMELSRLRSDDTAVYYCVRDRGTSGWPLFDYWGQGTLVTVSS
VL: QSVLTQPPSVSGAPGQRVTISCTGSSSNIGAGFDVHWYQLLPGTAPKLLIFDNNNRPSGVPDRFSGSKSGTSASLAITGLQAEDEADYYCQSYDSNLSGSIVVFGGGTKLTVL
notes: also called L4H4

How the values were obtained:
[1] = target: T1, Cynomolgus TSLP (mammalian produced); assay: SPR (Biacore 3000), antibody captured by anti-human Fc gamma, TSLP in solution, 25 C
Method: (§1) The surface plasmon resonance experiments described in this patent application were conducted at 25° C. using a Biacore 3000 instrument (Biacore International AB, Uppsala, Sweden) equipped with a CM4 sensor chip. Anti-Fcγ specific capture antibodies were covalently immobilized to two flow cells on the CM4 chip using standard amine-coupling chemistry with HBS-EP as the running buffer. Briefly, each flow cell was activated with a 1:1 (v/v) mixture of 0.1 M NHS and 0.4 M EDC. AffiniPure Goat Anti-Human IgG, Fcγ Fragment Specific antibody (Jackson ImmunoResearch Inc. West Grove, Pa.) at 30 ug/ml in 10 mM sodium acetate, pH 5.0 was immobilized with a target level of 3,000 RUs on two flow cells. Residual reactive surfaces were deactivated with an injection of 1 M ethanolamine. The running buffer was then switched to HBS-EP+0.1 mg/ml BSA for all remaining steps.
(§2) The following antibodies were tested. […] No antibody was captured on the control flow cell surface. Human, cyno, or murine TSLP at various concentrations, along with buffer blanks were then flown over the two flow cells. The concentration ranges for human and cyno TSLP were from 0.44-100 nM while the concentration range for murine TSLP was from 8.2-6000 nM. A flow rate of 50 ul/min was used and a 2 minute association phase followed by a 10-30 minute dissociation phase. After each cycle the surfaces were regenerated with a 30 second injection of 10 mM glycine pH 1.5. Fresh antibody was then captured on the test flow cell to prepare for the next cycle.

Murine TSLP [2] = target: T2, Murine TSLP; assay: as above
Method: as §1, §2

[3] = target: T3, Human TSLP (mammalian produced) (human, UniProt Q969D9 29-159); assay: as above
T3 construct: also called Hu TSLP; huTSLPwtpHF
Method: as §1, §2

Murine TSLP [4] = target: T2, Murine TSLP; assay: SPR (Biacore 3000), antibody captured by anti-human Fc gamma, TSLP in solution

Row | Binder | Kd [1] [pM] | Kd (Murine TSLP [2]) [pM] | Kd [3] [pM] | koff [3] [s⁻¹] | koff [1] [s⁻¹] | binding result (Murine TSLP [4])
1 | B1 | 51.2 | 377000 | – | – | – | –
2 | B2 | 46.8 | – | 203 | 0.000349 | 0.000104 | –
3 | B3 | 37.6 | – | 157 | 0.000285 | 9.42e-05 | no binding (tested: murine TSLP 8.2-6000 nM)
4 | B4 | – | – | 170 | 0.00027 | – | –
5 | B5 | – | – | 340 | 0.00033 | – | –
